Experimental data from paper PMC7466809.

Tested on: GST-EZH2
Assay: Alpha assay (saturation)
Conditions: RNA-protein binding buffer: 50 mM Tris-HCl pH 7.9, 10 mM beta-ME, 10% glycerol, 5 mM MgCl2, 100 mM KCl, 0.1% NP-40; EMSA 1 h at RT, 1 ug His-EZH2, 0.035 pmol …

Substance: LINC00301 (Alpha assay)
- K half: 228 nM
